One substance from publication PMC9783675 can be followed below.

This assay deals with recombinant Nodulin 22 (PvNod22) with a 6xHis-tag at the N-terminus, lacking the ER-signal peptide (Phaseolus vulgaris L.). Description: ITC; dilution experiment: PvNod22 injected (10 x 2 µL) into buffer, PBS pH 7.5, 25 °C; agglomerates to smaller oligomers; apparent. Also noted: dH (of dissociation): unit not given here. On the technique in general: Isothermal titration calorimetry measures the heat released or taken up as one component is titrated into another.

“recombinant Nodulin 22 (PvNod22) with a 6xHis-tag at the N-terminus, lacking the ER-signal peptide (natural protein)”: the Kd worked out at 9.13 µM and the dH (of dissociation) is -49600.
